Patent US20200040103A1

Molecular target: recombinant human KLK5 (human) (UniProt Q9Y337)
Experiment: cell-based or functional assay

Sequence of recombinant human KLK5 (human) (Q9Y337 67-293): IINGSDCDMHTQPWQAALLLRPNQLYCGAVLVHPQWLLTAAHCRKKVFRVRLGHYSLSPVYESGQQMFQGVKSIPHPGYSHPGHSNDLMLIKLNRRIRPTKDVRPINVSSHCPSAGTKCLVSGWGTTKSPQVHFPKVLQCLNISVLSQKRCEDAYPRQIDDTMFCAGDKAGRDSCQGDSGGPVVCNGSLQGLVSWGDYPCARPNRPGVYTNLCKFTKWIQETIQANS

IC50, KLK5-induced IL-8 secretion by A549 cells: 21 nM
Substance: Spink5.Fc (Fc fusion)
